Source: patent US8901069B2, “Protein matrix for light-initiated electron transfer” (Research Foundation of The City University of New York, priority 2009, dated 2014)
Residue numbers refer to the chain shown, from its start.

Columns and labels:
[1] = Reduction potential of polypeptide-bound heme/ferric cofactor vs. hydrogen electrode; format: physicochemical
Experimental: In Example 2, the reduction potential of the peptides prepared in Example 1 is regulated by modulation of peptide ionic charge and cofactor structure. The net charge of the polypeptides is calculated using conventional methods known in the art.

[2] = Heme binding affinity by titration of heme into anaerobic protein solution; conditions: oxidized heme; read-out: oxidized heme binding constant
[3] = format: physicochemical
Experimental: The reduced heme binding constants are also measured for His42→Phe mutants of the polypeptides.

CGGGEIWKQHEEALKKFEEALKQFEELKKL (listed as Chemical synthesis) [HP-1]
reduction potential difference spanned by three distinct ferric cofactors bound via bis-histidine ligation ([1]; three ferric cofactors, FIG. 4A): approximately 400 mV

B1: GEIWKQHEDALQKFEEALNQFEDLKQLGGSGCGSGGEIWKQHEDALQKFEEALNQFEDLKQL (protein, listed as Chemical synthesis)
chain: GEIWKQHEDALQKFEEALNQFEDLKQLGGSGCGSGGEIWKQHEDALQKFEEALNQFEDLKQL
notes: homodimeric helix-loop-helix variant of HP-6, recombinantly expressed in E. coli
reduction potential of heme complex, more positive than HP-1-heme complex ([1]; difference vs HP-1-heme complex, earlier experiments): 45 mV
Kd [2]: 220 pM

B2: CC-10: HP-7 modified to incorporate the preferred consensus sequence (protein, listed as Chemical synthesis)
chain: B1 chain with W39L, E43A, L46A, F49I, E50F
stability of heme-bound complex [3]: long-term stability
Kd [2]: 10.7 pM

B3: CC-9: HP-7 peptide with specific Glu→Ala mutations (protein, listed as Chemical synthesis)
chain: B1 chain with E43A, E50A, E57A
increase in bound heme reduction potential compared to HP-7 ([1]; difference vs HP-7, FIG. 4B): 101 mV
